According to US11351268B2, “FGF21 C-terminal peptide optimization” (INDIANA UNIVERSITY RESEARCH AND TECHNOLOGY CORPORATION, priority 2016, dated 2022):
Where “and” joins values, the source holds several entries; their conditions need not be identical. Equal values may be shown once. Read-outs that look alike come from different tables or passages of the source.

Tests used:
[1] = tested on: FGF21 receptor; experiment: Erk1/2 phosphorylation assay: agonist activity in 293T HEK hKLB cells; assay type: cell-based, human
Sequence of FGF21 receptor (Q86Z14 whole entry): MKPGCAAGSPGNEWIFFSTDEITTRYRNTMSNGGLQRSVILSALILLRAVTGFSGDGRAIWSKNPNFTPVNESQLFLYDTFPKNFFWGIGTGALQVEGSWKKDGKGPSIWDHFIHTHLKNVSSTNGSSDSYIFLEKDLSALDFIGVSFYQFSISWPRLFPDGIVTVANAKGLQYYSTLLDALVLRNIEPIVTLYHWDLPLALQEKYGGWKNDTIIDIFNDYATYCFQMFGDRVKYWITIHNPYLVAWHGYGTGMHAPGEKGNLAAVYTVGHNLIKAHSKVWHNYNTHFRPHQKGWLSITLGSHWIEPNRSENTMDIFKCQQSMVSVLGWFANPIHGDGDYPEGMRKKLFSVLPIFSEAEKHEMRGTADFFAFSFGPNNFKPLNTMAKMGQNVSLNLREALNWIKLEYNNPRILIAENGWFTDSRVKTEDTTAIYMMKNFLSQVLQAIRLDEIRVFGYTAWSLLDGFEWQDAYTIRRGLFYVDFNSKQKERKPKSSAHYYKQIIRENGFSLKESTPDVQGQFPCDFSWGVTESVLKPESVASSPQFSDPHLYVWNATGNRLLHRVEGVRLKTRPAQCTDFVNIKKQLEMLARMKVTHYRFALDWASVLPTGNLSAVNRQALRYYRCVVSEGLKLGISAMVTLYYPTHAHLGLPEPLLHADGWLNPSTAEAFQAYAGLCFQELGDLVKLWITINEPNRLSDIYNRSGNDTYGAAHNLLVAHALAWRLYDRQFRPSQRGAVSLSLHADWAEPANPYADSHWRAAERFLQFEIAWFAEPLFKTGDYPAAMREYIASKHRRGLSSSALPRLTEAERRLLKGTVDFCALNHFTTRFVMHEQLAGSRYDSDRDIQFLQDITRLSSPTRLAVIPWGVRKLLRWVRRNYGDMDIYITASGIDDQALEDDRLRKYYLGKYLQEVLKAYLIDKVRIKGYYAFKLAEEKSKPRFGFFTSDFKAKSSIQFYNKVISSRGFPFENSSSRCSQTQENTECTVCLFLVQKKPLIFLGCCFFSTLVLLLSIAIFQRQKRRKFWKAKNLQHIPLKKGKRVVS
Description: Cells were cultured in 10% Fetal Bovine Serum containing DMEM High glucose GLUTAMAX® at 37 C, 95% humidity, 5% CO2. For generating the cell line with stable expression, human KLB gene was synthesized by Genscript and subcloned into pcDNA3.1(+) with ZEOCIN® resistance vector (INVITROGEN®) by NheI and NotI restriction enzyme sites. HEK 293T cells were obtained from ATCC and were transiently transfected at 80% confluency using Lipofectamine 3000 (Invitrogen). Selection for KLB-expressing cells was initiated 48 hours post-transfection in the growth media containing 100 μg/ml of ZEOCIN® (Gibco) and continued for 4 weeks with fresh media added every third day. Human KLB expression in pooled cells was confirmed by Western blot and a functional FGF21 MAPK phosphorylation assay.
293 HEK cells expressing hKLB were plated to 90% confluency in 96 well plates coated with poly-D-Lysine. Cells were serum starved for three hours in 0.1% BSA containing media prior to stimulation with protein and/or an antagonist peptide for ten minutes at 37° C. The cell lysate was used for the detection of phospho-Erk1/2 levels by AlphaSureFire kit using the prescribed protocol. The degree of biochemical activation was recorded and analyzed using Origin software by logistic curve fitting. Tests at each concentration were done in triplicates, and the standard deviation is as shown in the graphs. The calculation of maximal activities was done keeping the FGF21 157-181 or FGF19 169-194 peptide activity as standard. The difference between the Erk1/2 phosphorylation signal for the highest (10 μM) and the lowest (0 μM) tested dose for native peptide was considered as 100% and accordingly all the other values were assigned.

[2] = target: T1, mouse KLB (Mus musculus, UniProt P16092+Q99N32); experiment: agonism in cells overexpressing mouse KLB; assay type: cell-based; details: FIG. 11B, read-out: potency (agonism)
T1 construct: expressed in transfected cells
T1 sequence (Q99N32 whole entry): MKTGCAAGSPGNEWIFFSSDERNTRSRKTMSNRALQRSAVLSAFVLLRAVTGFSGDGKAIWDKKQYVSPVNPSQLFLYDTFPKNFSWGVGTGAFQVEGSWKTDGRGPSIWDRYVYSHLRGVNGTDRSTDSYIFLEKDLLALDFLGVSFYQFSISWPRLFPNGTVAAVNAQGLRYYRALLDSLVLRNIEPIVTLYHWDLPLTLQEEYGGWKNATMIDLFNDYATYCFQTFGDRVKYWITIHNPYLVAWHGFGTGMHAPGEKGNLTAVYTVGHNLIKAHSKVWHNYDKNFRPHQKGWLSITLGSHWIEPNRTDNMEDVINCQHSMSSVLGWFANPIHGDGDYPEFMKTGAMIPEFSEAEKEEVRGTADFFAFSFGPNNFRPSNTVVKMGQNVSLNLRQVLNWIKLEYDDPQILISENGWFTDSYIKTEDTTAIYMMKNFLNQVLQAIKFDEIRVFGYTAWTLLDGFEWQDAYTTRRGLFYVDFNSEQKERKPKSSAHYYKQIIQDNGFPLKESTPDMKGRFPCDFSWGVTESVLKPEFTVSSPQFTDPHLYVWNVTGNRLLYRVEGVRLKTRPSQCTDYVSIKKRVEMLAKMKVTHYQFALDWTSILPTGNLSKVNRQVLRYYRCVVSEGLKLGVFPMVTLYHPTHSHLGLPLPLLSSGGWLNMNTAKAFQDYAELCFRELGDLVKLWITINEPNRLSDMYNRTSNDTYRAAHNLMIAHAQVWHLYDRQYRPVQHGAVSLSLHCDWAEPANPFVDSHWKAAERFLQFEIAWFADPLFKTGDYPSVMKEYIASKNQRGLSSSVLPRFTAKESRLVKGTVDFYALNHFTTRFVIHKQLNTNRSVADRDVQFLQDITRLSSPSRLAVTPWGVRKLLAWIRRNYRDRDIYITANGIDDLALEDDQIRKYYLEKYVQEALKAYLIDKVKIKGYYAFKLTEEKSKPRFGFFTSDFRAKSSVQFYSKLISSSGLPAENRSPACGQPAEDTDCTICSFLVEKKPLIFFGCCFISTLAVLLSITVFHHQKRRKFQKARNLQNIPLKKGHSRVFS
T1 sequence (P16092 22-822): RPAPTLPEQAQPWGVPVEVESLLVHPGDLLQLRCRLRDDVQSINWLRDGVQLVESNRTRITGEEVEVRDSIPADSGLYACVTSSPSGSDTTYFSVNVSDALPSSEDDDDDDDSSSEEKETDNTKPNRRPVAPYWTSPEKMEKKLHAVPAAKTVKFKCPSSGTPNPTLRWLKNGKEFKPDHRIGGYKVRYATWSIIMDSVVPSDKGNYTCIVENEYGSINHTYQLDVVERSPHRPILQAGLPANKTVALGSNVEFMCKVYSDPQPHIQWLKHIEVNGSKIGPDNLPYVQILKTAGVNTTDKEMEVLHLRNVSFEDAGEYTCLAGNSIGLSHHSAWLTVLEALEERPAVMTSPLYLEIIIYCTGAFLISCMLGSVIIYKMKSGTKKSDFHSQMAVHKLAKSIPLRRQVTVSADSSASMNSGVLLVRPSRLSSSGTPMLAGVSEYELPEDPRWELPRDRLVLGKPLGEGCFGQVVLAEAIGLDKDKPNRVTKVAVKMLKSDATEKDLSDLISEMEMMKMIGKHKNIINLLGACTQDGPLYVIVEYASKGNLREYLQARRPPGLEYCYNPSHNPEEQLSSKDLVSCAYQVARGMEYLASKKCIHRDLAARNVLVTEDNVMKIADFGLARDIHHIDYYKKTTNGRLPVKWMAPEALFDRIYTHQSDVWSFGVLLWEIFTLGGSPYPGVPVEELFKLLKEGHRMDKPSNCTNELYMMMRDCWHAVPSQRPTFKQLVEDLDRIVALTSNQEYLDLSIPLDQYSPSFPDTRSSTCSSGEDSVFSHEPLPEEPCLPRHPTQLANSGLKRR

[3] = in vivo administration of FGF analogs to mice on diabetogenic diet; set-up: species or system C57Bl/6 mice; details: 0.3 or 1.0 mg/kg daily subcutaneous, relative to native FGF21; for change in body weight: 6 days
Description: C57Bl/6 mice were obtained from Jackson Laboratories and fed a diabetogenic diet from Research Diets: a high-sucrose diet with 58% kcal from fat. Mice were group-housed on a 12:12-h light-dark cycle at 22° C. with free access to food and water. All studies were approved by and performed according to the guidelines of the Institutional Animal Care and Use Committee of the University of Cincinnati. All mice were treated by daily subcutaneous injections delivered in physiologically buffered saline at a dose of 0.3 or 1 mg/kg. Animals were weighed and food consumption was measured each day.
Unless indicated otherwise, all statistical analyses were performed using GraphPad Prism. The analysis of the results obtained in the in vivo experiments was performed using one-way ANOVAs followed by Tukey post hoc tests. P values lower than 0.05 were considered significant. The results are presented as means±s.e.m. of 7-8 replicates per group. Receptor activation data is ±s.d.
The effect of FGF analog V2-0278-1A on mice was investigated by administering either vehicle, FGF21 (at 0.3 mg/kg or 1.0 mg/kg) or V2-0278-1A (at 0.3 mg/kg or 1.0 mg/kg) and monitoring weight over the course of 6 days of treatment.

[4] = FIG. 11A, cells overexpressing human KLB, read-out: potency (agonism)
[5] = FIGS. 9A/9B, full length proteins, Erk1/2 phosphorylation, read-out: EC-50
[6] = FIG. 12, cells overexpressing human KLB, read-out: potency

EC50 [1, 4] [nM] | EC50 [1, 5] | EC50 [2] [nM] | EC50 [1, 6] [nM] | Molecule | % maximal activity ([1]; FIGS. 9A/9B, full length proteins, Erk1/2 phosphorylation) [%] | fold higher potency versus 0278-1A ([1]; cells overexpressing human KLB) | change in body weight [3] | change in body weight ([3]; listed as 0361) | food intake [3] | food intake ([3]; listed as 0361)
65.8 ± 58.2 | 148 nM | 25.7 ± 21.3 | – | FGF19: native full length FGF19 protein [reference compound] | 27 | – | – | – | – | –
8.42 ± 4.1 | 4.5 nM and 3.3 nM | 3.96 ± 1.51 | – | FGF21: native full length mature FGF21 protein (protein, listed as Homo sapiens) HPIPDSSPLLQFGGQVRQRYLYTDDAQQTEAHLEIREDGTVGGAADQSPESLLQLKALKPGVIQILGVKTSRFLCQRPDGALYGSLHFDPEACSFRELLLEDGYNVYQSEAHGLPLHLPGNKSPHRDPAPRGPARFLPLPGLPPALPEPPGILAPQPPDVGSSDPLSMVGPSQGRSPSYAS | – | – | – | – | – | –
1.82 ± 0.37 | – | 2.15 ± 0.54 | 1.13 ± 0.28 | 0278-1A: fusion of the N-terminus of FGF21 and C-terminal peptide FGF19 A26 (protein, listed as Homo sapiens) HPIPDSSPLLQFGGQVRQRYLYTDDAQQTEAHLEIREDGTVGGAADQSPESLLQLKALKPGVIQILGVKTSRFLCQRPDGALYGSLHFDPEACSFRELLLEDGYNVYQSEAHGLPLHLPGNKSPHRDPAPRGPARFLPLPGLPPALPEPPGILAPQLETDSMDPFGLVTGLEAVRSPSFEA | – | – | – | – | – | –
– | – | – | 0.35 ± 0.12 | V2-0278-1A: 0278-1A with A31C, G43C, L98D, L100K, N121D, D127K (protein, listed as Homo sapiens) HPIPDSSPLLQFGGQVRQRYLYTDDAQQTECHLEIREDGTVGCAADQSPESLLQLKALKPGVIQILGVKTSRFLCQRPDGALYGSLHFDPEACSFREDLKEDGYNVYQSEAHGLPLHLPGDKSPHRKPAPRGPARFLPLPGLPPALPEPPGILAPQLETDSMDPFGLVTGLEAVRSPSFEA | – | 2-3 × | enhanced weight loss | superior change in body weight | reduced food intake | greater reduction in total food intake
